For orientation: stoichiometry N means the number of molecules, sites or subunits per partner or assembly.

In experiment [1] the target is Influenza B nucleoprotein (strain B/Memphis/13/03) (influenza B virus, strain B/Memphis/13/03). In words: negative stain electron microscopy.
Experiment [2] has the same target. In words: SEC-MALLS.

Several values for one entry are separate records, joined by “and”; a condition that tells them apart may be missing. Equal entries are not always repeated.

“Influenza B nucleoprotein (strain B/Memphis/13/03) (natural protein)”: the stoichiometry N in experiment [1] was 2 and 4 and 5; in experiment [2] it was 5 and 2 and 4.

For the origin of these results see paper PMC5035961.
